In paper PMC4073494 (Nature communications, 2014) one finds EC50 data, which are given here for 1 molecule.

In this experiment the target is purified full-length EED (AlphaScreen) (UniProt O75530 1-441). Put plainly: AlphaScreen or HTRF.
purified full-length EED (AlphaScreen), sequence (O75530 whole entry): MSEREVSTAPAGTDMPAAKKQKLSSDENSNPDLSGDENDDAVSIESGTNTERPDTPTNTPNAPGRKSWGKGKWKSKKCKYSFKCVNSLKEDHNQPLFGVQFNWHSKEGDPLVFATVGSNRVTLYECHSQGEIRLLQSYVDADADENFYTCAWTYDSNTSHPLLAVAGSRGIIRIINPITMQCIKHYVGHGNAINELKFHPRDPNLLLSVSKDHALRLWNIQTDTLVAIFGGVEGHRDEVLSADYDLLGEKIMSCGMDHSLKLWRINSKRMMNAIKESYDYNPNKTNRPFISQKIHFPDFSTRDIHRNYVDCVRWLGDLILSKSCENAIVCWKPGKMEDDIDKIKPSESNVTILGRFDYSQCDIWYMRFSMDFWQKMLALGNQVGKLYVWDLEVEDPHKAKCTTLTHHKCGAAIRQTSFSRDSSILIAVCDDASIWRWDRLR

B1: unlabeled full-length EZH2 (AlphaScreen) (natural protein)
chain: not shown
For the molecule B1, the EC50 amounted to 148 nM.
